Results reported in article PMC2672303, “Dosage Effects of Cohesin Regulatory Factor PDS5 on Mammalian Development: Implications for Cohesinopathies”.

Molecular target: T1, C-PDS5B-His wild type (C-terminal PDS5B, two AT-hooks) (Homo sapiens, UniProt Q9NTI5 1134-1446)
T1 sequence: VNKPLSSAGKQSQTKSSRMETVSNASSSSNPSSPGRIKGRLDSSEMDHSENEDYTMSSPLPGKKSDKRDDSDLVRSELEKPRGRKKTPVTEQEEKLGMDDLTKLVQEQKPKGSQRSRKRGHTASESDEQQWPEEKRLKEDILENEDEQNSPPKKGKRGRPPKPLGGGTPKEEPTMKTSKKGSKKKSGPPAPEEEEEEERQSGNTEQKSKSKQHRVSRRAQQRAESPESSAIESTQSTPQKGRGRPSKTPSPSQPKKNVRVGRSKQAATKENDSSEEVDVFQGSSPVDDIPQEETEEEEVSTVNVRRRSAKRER
Test: EMSA; 5-40 ng protein; EMSA: 20 ng protein (5-40 ng in Fig. 7E) with 2.25 pmol 32P probe, 25 C, 5 min, 6% polyacrylamide gel; protein dialyzed in 50 mM Tris pH 7.5, 0.5 mM EDTA, 100 mM NaCl, 10% glycerol, 1 mM DTT; binding buffer as in cited work
Conditions: protein: recombinant; tags: N-terminal HA; C-terminal 6xHis; label: 32P; blunt

B1: T5-8-T5 probe (dsDNA)
DNA 1: GGACTCCAGGTCCAGGACCGCTTTTTGCGCGCGCTTTTTGCGGGAGGTCCAGCTGTCCACCTCC
DNA 2: GGAGGTGGACAGCTGGACCTCCCGCAAAAAGCGCGCGCAAAAAGCGGTCCTGGACCTGGAGTCC
binding result: binds
